Type in all cases: physicochemical
The nature of series [1]: Formation of hydrogel from nucleic acid units without ligase. Particulars: for gel formation singly or on mixing: final DNA concentration 2 mM, NaCl 150 mM; for gel formation: without DNA ligase. Here is the method: A NaCl solution was added to an ODN solution (polypodna) such that the final Na^+ concentration was 5 to 150 mM. The gel formation and the gel strength were measured by a gel strength analyzer (gel strength meter, Nakayamadenki Co., Ltd, Osaka).
A structure to be a hydrogel (a nucleic acid monomer and an estimated nucleic acid unit) in conditions at room temperature, at 5 mM to 150 mM sodium chloride concentration (150 mM is substantially physiological concentration), and not containing a DNA ligase was elucidated. […] For convenience, nucleic acid units estimated to be formed according to the number of nucleic acid monomers capable of constituting the nucleic acid unit were represented by xxxpodna (xxxpod-like structure forming nucleic acid, xxx is substituted by tri (3), tetra (4) and the like, according to the number of nucleic acid monomers capable of constituting the nucleic acid unit). In Table 2 described below, xxxpodna is an estimated nucleic acid unit, and each of xxx-Y-N is a nucleic acid monomer that can be a constituent element of the nucleic acid unit (xxxpodna) which is mentioned above thereof. When the descriptions of Ys are different from each other, different nucleic acid units can be formed. N denotes numbering of nucleic acid monomers constituting each of the estimated nucleic acid units.
Unlike (1-1) described above, gelation can be controlled by using a nucleic acid monomer including cohesive protruding ends which are not attached to themselves (that is, not palindrome sequence).

Series [2] is described as follows: Percentage of remaining gels with the passage of time. As for the experimental part: Gels were formed by adjusting the NaCl concentration at 150 mM in an aqueous solution containing Tetrapodna (12-14-14) (SEQ ID NOs.: 30, 31, 32 and 33) at a DNA concentration of 0.1 mM, 0.25 mM or 0.5 mM, and the percentage of the remaining gels was measured with the passage of time. The results are shown in a graph in the left upper side of FIG. 17.
Gels were formed in conditions at a certain DNA concentration (0.5 mM) and a certain NaCl concentration (150 mM), and the percentage of the remaining gels was measured with the passage of time by using Tetrapodna (respectively, SEQ ID NOs.: 2, 4, 5 and 6, SEQ ID NOs.: 18, 19, 20 and 21, SEQ ID NOs.: 22, 23, 24 and 25, SEQ ID NOs.: 26, 27, 28 and 29, as well as SEQ ID NOs.: 30, 31, 32 and 33) having various lengths of the cohesive protruding end (4, 6, 8, 10 or 12 bases). The results are shown in a graph in the left lower side of FIG. 17. […] When 12 hours had passed, the percentage of the remaining gels became about 50%.
Gels were formed by variously changing the NaCl concentrations (5 mM, 50 mM, 100 mM or 150 mM) of an aqueous solution containing Tetrapodna (12-14-14) (SEQ ID NOs.: 30, 31, 32 and 33) at a DNA concentration of 0.5 mM, and the percentage of the remaining gels was measured with the passage of time. The results are shown in a graph in the right upper side of FIG. 17. […] At a low salt concentration (5 mM), almost all the formed gels became in a sol state when about 6 hours had passed. When the salt concentration was increased to 50 mM, solation tendency was weakened, a change from a gel into a sol occurred moderately (about 40% when 12 hours had passed).
The percentage of the remaining gels was measured with the passage of time in the same manner as in (8-3) except that Tetrapodna (4-18-18) (SEQ ID NOs.: 2, 4, 5 and 6) was used instead of Tetrapodna (12-14-14) (SEQ ID NOs.: 30, 31, 32 and 33). The results are shown in a graph in the right lower side of FIG. 17. […] In (8-3), Tetrapodna (12-14-14) (the length of the cohesive protruding end is 12 bases) was used. In (8-4), Tetrapodna (4-18-18) (the length of the cohesive protruding end is 4 bases) was used.

The nature of series [3]: Evaluation of gelation at various DNA concentrations and NaCl concentrations. Further details: key: ◯: the mark “∘” is given to cases in which gelation was observed; X: the mark “x” is given to cases of a solution state (sol-state). Here is the method: […] The gel formation and the gel strength were measured by a gel strength analyzer (gel strength meter, Nakayamadenki Co., Ltd, Osaka).
Specifically, by changing the DNA concentrations of an aqueous solution of Tripodona (4-18-18) (X=4) (SEQ ID NOs.: 1, 2 and 3), Tetrapodna (4-18-18) (X=4) (SEQ ID NOs.: 2, 4, 5 and 6), Hexapodna (4-18-18) (X=4) (SEQ ID NOs.: 2, 3, 4, 7, 9 and 10) and Tetrapodna (8-16-16) (X=8) (SEQ ID NOs.: 22, 23, 24 and 25) as shown in the lines of Table 4, and by changing the NaCl concentration as shown in the rows of Table 4, whether or not a gel is formed at various DNA concentrations and NaCl concentrations was evaluated. The results are shown such that the mark “∘” is given to cases in which gelation was observed, and the mark “x” is given to cases of a solution state (sol-state).

On to “dsDNA (12-14): double strand DNA, SEQ ID NOs.: 42 and 43, 12-base ends complementary to Tetrapodna (A) (chain 1 GACTGACTCTGAACGTCAGCGTTA; chain 2 GACTGACTCTGATAACGCTGACGT; DNA, all phosphodiester, methylation of C not given here)”, for which, in series [1], the “gel formation singly or on mixing” value was “did not form a gel singly”.

B1: Tetrapodna (B): SEQ ID NOs.: 38, 39, 40 and 41, 12-base end complementary to Tetrapodna (A) (nucleic acid)
DNA 1: GACTGACTCTGATGCACGACATCACGTTGACGCTCGTCGA
DNA 2: GACTGACTCTGATCGACGAGCGTCAATCTCGCAACGTGCA
DNA 3: GACTGACTCTGATGCACGTTGCGAGACAGACGCTTGACGA
DNA 4: GACTGACTCTGATCGTCAAGCGTCTGCGTGATGTCGTGCA
modifications: DNA, all phosphodiester, methylation of C not given here
B1: in series [1], the “gel formation singly or on mixing” value is recorded as “did not form a gel singly”.

B2: Tetrapodna (12-14-14): four ODNs, SEQ ID NOs.: 30, 31, 32 and 33, 12-base palindrome cohesive protruding end (nucleic acid)
DNA 1: ACGTCATGACGTTGCACGACATCACGTTGACGCTCGTCGA
DNA 2: ACGTCATGACGTTCGACGAGCGTCAATCTCGCAACGTGCA
DNA 3: ACGTCATGACGTTGCACGTTGCGAGACAGACGCTTGACGA
DNA 4: ACGTCATGACGTTCGTCAAGCGTCTGCGTGATGTCGTGCA
modifications: DNA, all phosphodiester, methylation of C not given here
Regarding B2, in series [1], the gel formation result is reported as “gels can be prepared”. Besides, in series [2] (DNA 0.1 mM, NaCl 150 mM), the “gel formation (percentage of gels)” value is reported as “about 25%”. The “percentage of the remaining gels with the passage of time” value (shortened to “percentage of the remaining gels”) is on record as “the initial percentage of gels was increased, but the percentage of the remaining gels was decreased with the passage of time” in series [2] (DNA 0.25 mM, NaCl 150 mM); “decreased with the passage of time only slightly” in series [2] (DNA 0.5 mM, NaCl 100 mM); “decreased with the passage of time only slightly” in series [2] (DNA 0.5 mM, NaCl 150 mM). In addition, in series [2] (DNA 0.5 mM, NaCl 5 mM), the “time until almost all the formed gels became in a sol state” value is recorded as “about 6 hours”. Also, in series [2] (DNA 0.5 mM, NaCl 50 mM, 12 hours), the “change from a gel into a sol” value is reported as “about 40%”. The “initial percentage of gels” value is on record as “about 100%” in series [2] (DNA 0.5 mM, NaCl 100 mM) and “about 100%” in series [2] (DNA 0.5 mM, NaCl 150 mM).

B3: Tripodna(4-18-18): nucleic acid unit of three ODNs, SEQ ID NOs.: 1, 2 and 3, 4-base palindrome cohesive protruding end, CpG (nucleic acid)
DNA 1: ACGTTCGTCAACGTCTGTGCTCTCACGTTGACGCTGTCGA
DNA 2: ACGTTCGACAGCGTCAACGTGAAACGTGAAGCGTCTGCGA
DNA 3: ACGTTCGCAGACGCTTCACGTTGAGCACAGACGTTGACGA
modifications: unmodified DNA
With B3, the gelation entry in series [3] (Na+ 2 mM, DNA 1.2 mM) is reported as “X”; in series [3] (Na+ 2 mM, DNA 1.4 mM) it was “◯”; in series [3] (Na+ 10 mM, DNA 1.2 mM) it was “◯”; in series [3] (Na+ 20 mM, DNA 1.0 mM), “X”; in series [3] (Na+ 50 mM, DNA 0.7 mM), “X”; in series [3] (Na+ 50 mM, DNA 0.8 mM), “X”. Besides, the gelation entry is given as “X” in series [3] (Na+ 50 mM, DNA 0.9 mM); “◯” in series [3] (Na+ 50 mM, DNA 1.0 mM); “◯” in series [3] (Na+ 100 mM, DNA 0.7 mM); “◯” in series [3] (Na+ 100 mM, DNA 0.8 mM); “◯” in series [3] (Na+ 100 mM, DNA 0.9 mM); “X” in series [3] (Na+ 150 mM, DNA 0.6 mM). The gel formation entry in series [1] is on record as “gels can be prepared”.

B4: Pentapodna (4-18-18): five ODNs, SEQ ID NOs.: 2, 3, 4, 7 and 8, 4-base cohesive protruding end (nucleic acid)
DNA 1: ACGTTCGACAGCGTCAACGTGAAACGTGAAGCGTCTGCGA
DNA 2: ACGTTCGCAGACGCTTCACGTTGAGCACAGACGTTGACGA
DNA 3: ACGTTCGCTGACGTTGCAGACATCACGTTGACGCTGTCGA
DNA 4: ACGTTCGTCAACGTCTGTGCTCGCAGCGTCTTAACGTCGA
DNA 5: ACGTTCGACGTTAAGACGCTGCTGTCTGCAACGTCAGCGA
modifications: unmodified DNA
B4: the gel formation entry in series [1] was “gels can be prepared”.

B5: Tetrapodna (A): SEQ ID NOs.: 34, 35, 36 and 37, 12-base non-palindrome cohesive protruding end (nucleic acid)
DNA 1: TCAGAGTCAGTCTGCACGACATCACGTTGACGCTCGTCGA
DNA 2: TCAGAGTCAGTCTCGACGAGCGTCAATCTCGCAACGTGCA
DNA 3: TCAGAGTCAGTCTGCACGTTGCGAGACAGACGCTTGACGA
DNA 4: TCAGAGTCAGTCTCGTCAAGCGTCTGCGTGATGTCGTGCA
modifications: DNA, all phosphodiester, methylation of C not given here
On to B5, for which the “gel formation singly or on mixing” value in series [1] is on record as “did not form a gel singly”.

B6: Tetrapodna (10-15-15): four ODNs, SEQ ID NOs.: 26, 27, 28 and 29, 10-base cohesive protruding end (nucleic acid)
DNA 1: ACGTTAACGTTGCACGACATCAGCGTCTGACGCTCGTCGA
DNA 2: ACGTTAACGTTCGACGAGCGTCAGATCTCGCAACGCTGCA
DNA 3: ACGTTAACGTTGCAGCGTTGCGAGACAGACGCTTGACGCA
DNA 4: ACGTTAACGTTGCGTCAAGCGTCTGCGCTGATGTCGTGCA
modifications: DNA, all phosphodiester, methylation of C not given here
With B6, the gel formation result in series [1] is given as “gels can be prepared”. Moreover, in series [2] (DNA 0.5 mM, NaCl 150 mM), the “initial percentage of gels” value is listed as “about 100%” and the “percentage of the remaining gels” value was “decreased with the passage of time only slightly”.

B7: Tetrapodna (6-17-17): four ODNs, SEQ ID NOs.: 18, 19, 20 and 21, 6-base cohesive protruding end (nucleic acid)
DNA 1: AACGTTTACGCACGACATCAGCGTCTGGACGCTTCGTCGA
DNA 2: AACGTTTCGACGAAGCGTCCAGATCTCGTCAACGCTGCGA
DNA 3: AACGTTTCGCAGCGTTGACGAGACAGACGCTGTGACGCTA
DNA 4: AACGTTTAGCGTCACAGCGTCTGCGCTGATGTCGTGCGTA
modifications: unmodified DNA
Regarding B7, the gel formation result in series [1] was “gels can be prepared”. In series [2] (DNA 0.5 mM, NaCl 150 mM), the “initial percentage of gels” value is recorded as “about 100%” and the “percentage of the remaining gels” value is “decreased with the passage of time only slightly”.

The record behind these values is US9393309B2, “Self-gelatinizable nucleic acid” (Kyoto University, priority 2011, dated 2016).
